Measured values reported in US20260176342A1 (CITRYLL B V, published 2026).
Square brackets hold non-standard residues; d marks the D form. Ends that are not written are not given here. Cit = NC(=O)NCCC[C@H](N)C(=O)O

Tests used:
[1] = molecular target: T1, citrullinated histone 4-derived peptide (SEQ ID NO: 20), C-terminal biotin (human, citrulline at position 3; biotin at the C-terminus); assay: Octet RED96 off-rate screen, biotinylated peptide on streptavidin biosensors, antibody 72 nM, 30 C
T1 construct: Immobilized on streptavidin biosensors (Octet RED96); also called H4-derived peptide; N-terminal histone 4 peptide
T1 peptide: SGXGKGGKGLGK
Method: Off-rate screening of the isomerization-mutated antibodies was performed on an Octet® RED96 (biomolecule detection system) instrument (Pall ForteBio). All measurements were performed at 30° C. Streptavidin (SA) biosensors were first washed for 50 sec with PBS. 1 μg/ml N-terminal histone 2A (SEQ ID NO: 18) and histone 4 (SEQ ID NO: 20) peptides, containing both a citrulline at position 3 and a biotin at the C-terminus, were immobilized on SA biosensors for 200 sec, washed with PBS for 50 sec and excess reactive streptavidin molecules blocked with EZ-Link™ biocytin for 200 sec. After two additional 50 sec wash steps in PBS, antibodies at a concentration of 72 nM diluted in PBS were allowed to bind to the biosensors for 200 sec. Sensors were subsequently placed in PBS for 4000 sec in order to measure their dissociation rates.
Background signals generated with non-coated biosensors, which have been exposed to the various antibodies as well as signals from coated biosensors that have not been exposed to the various antibodies, have been subtracted before dissociation curves for each antibody were plotted. Both histone 2A and histone 4 dissociation rates constants (kdis×E-07 (1/s)) for each antibody were calculated applying a 1:1 interaction model (fitting local, full) using ForteBio data analysis software 8.1.

[2] = molecular target: T2, citrullinated histone 2A-derived peptide (SEQ ID NO: 18), C-terminal biotin (human); assay: CMC ELISA, biotinylated peptide on NeutrAvidin-coated plate, anti-human-HRP, OD 450 nm, interpolated on a calibration curve
T2 construct: Captured by its biotin on NeutrAvidin plates (ELISA) or streptavidin biosensors (Octet); also called histone-derived peptide; citrullinated H2A-derived peptide
T2 peptide: SG[Cit]GKQGGKARA-biotin
Method: hMQ22.101j/e samples from week 0, 2, 4, 6 and 8, and hMQ22.101f/g samples from week 0, 3 and 6 were subjected to an in house-validated CMC ELISA. 96-well ELISA plates were coated with NeutrAvidin™ ([…]) by overnight incubation at 4° C. Wells were washed 5 times with PBS-Tween® (polysorbate) 20 (PBS-T) and blocked by a 2 hour incubation with PBS-T+1% Bovine serum albumin (BSA) at room temperature (RT). After 5 more washes with PBS-T, wells were incubated for 1 hour at RT with a histone-derived peptide (SEQ ID NO 18: SGXGKQGGKARA), containing a citrulline (X) at position 3 and a C-terminal biotin (40 ng/well) in PBS-T+0.2% BSA. After another 5 washes with PBS-T, a calibration curve made from a reference lot of hMQ22.101j/e or hMQ22.101f/g by adding to the wells starting at […] and further diluted at a 1:1 ratio until reaching a concentration of 0.66 ng/ml in PBS-T+0.2% BSA. […]
Finally, accelerated stability samples that had been incubated for 0, 2, 3, 4, 6 and 8 weeks at 37° C. were added to the same plate at a concentration of 40 ng/ml in PBS-T+0.2% BSA and incubated for 2 hours at RT. […] Wells were incubated 10 min with TMB substrate before stopping the reaction with 2 M H₂SO₄ after which the optical density was measured at wavelength of 450 nm. […]

binding result [1]: binds
binding result [2]: binds
B1: hMQ22.101j/e (antibody, V domains shown)
VH: QVQLVQSGAEVKKPGASVKVSCKASGYTFTNYGMHWVRQAPGQGLEWMGWINTYSGEATYAQKFQGRVTMTRDTSISTAYMELSRLRSDDTAVYYCLRGYTYQSFDEGGDYWGQGTLVTVSS
VL: DVVMTQSPLSLPVTLGQPASISCRSSQSLVDSDGKTYLNWFQQRPGQSPRRLIYLVSKLDSGVPDRFSGSGSGTDFTLKISRVEAEDVGVYYCWQGTHFPYTFGQGTKLEIK
notes: Full-size antibody with full-length human heavy and light chains; also called humanized therapeutic antibody with heavy chain hVH22.101j and light chain hVL22.101e; tACPA
